“Also recorded” adds a separate entry of the source.
Key:
[1] = test system: PBMCs (CD8+ cells); assay: Cell viability assay with sodium dithionite (Annexin V, LIVE/DEAD, flow cytometry); format: cell-based, human; details: 10 mM, 16 hours exposure; primary and cultured cells
Procedure: 10^6 freshly isolated PBMCs from healthy volunteers were incubated in 1 ml RPMI 1640 culture media containing HEPES-buffered 1 mM to 100 mM sodium dithionite (pH 7.4) at 37° C., 5% CO2. After 1-hour or 16-hour incubation, the cells were immediately assessed for cell viability or rested overnight in fresh media (for 1-hour treatment only). The cells were harvested, washed with PBS twice and stained with cell viability LIVE/DEAD® fixable near-IR stain (Molecular Probes®). The cells were then washed again with PBS and stained with anti-human CD8 (Clone RPA-T8; BioLegend) Brilliant Violet 421™ antibodies for 15 minutes. Thereafter, the cells were washed once with PBS and once with 1× Annexin V binding buffer (10 mM HEPES, pH 7.4; 140 mM NaCl; 2.5 mM CaCl2) prior to incubation with Annexin V FITC (eBioscience) for 10 minutes. The stained cells were immediately analyzed on BD LSRII flow cytometer and data were processed using FlowJo (Tree Star).

[2] = target: HLA-A*02:01 (Homo sapiens, UniProt P04439, D140Y/D185E/D98H/E176V/E277Q/G131W/G231S/I119V/I121R/I166T/I218V/L300P/L318F/N151K/N90K/P208A/P217A/Q86G/Q94H/R138H/R169H/T345S); details: cited from earlier work
[3] = format: physicochemical

| Compound | known binder class to HLA-A*02:01 [2] | other results |
| --- | --- | --- |
| O=S([O-])S(=O)[O-].[Na+].[Na+] [dithionite, sodium dithionite] | – | apoptosis or cell death of cells exposed to buffered dithionite [1]: little sign of apoptosis or cell death |
| ALQLLLEV | intermediate- | – |
| NMLSTVLGV | high-affinity | – |
| SIIPSGPLK [Peptide 10] | – | epitope modification after oxidative conditions ([3]; 0.3 mM sodium periodate, RT, 2 hours): cleaved the N-terminal Ser; also recorded: N-terminal serine of 10 was cleaved; epitope modification in PBS ([3]; PBS control incubation): unmodified |
| SLENFRAYV | intermediate- | – |
| VMLRWGVLA | intermediate- | – |

— patent publication US10400024B2, “Cleavage and exchange of major histocompatibility complex ligands employing azobenzene-containing peptides” (priority 2014, dated 2019)
